Assays:
soybean T1 plants = assay: Herbicide tolerance of transgenic soybean T1 plants to topramezone; assay type: in vivo; details: topramezone 50 and 100 g ai/ha, 7 DAT, compared to control vector DBN11375NN and wild-type
Excerpt: The Arabidopsisthaliana T1 plants into which the AsHPPDm-F372A-02 nucleotide sequence was introduced, Arabidopsis thaliana T1 plants into which the AsHPPD-02 nucleotide sequence was introduced and wild-type Arabidopsisthaliana plants (18 days after sowing) were sprayed with topramezone at four different concentrations, i.e., 25 g ai/ha (one-fold field concentration, 1×), 50 g ai/ha (two-fold field concentration, 2×), 100 g ai/ha (four-fold field concentration, 4×) and 0 g ai/ha (water, 0×) to determine the tolerance of Arabidopsisthaliana to the herbicide. The degree of damage caused by the herbicide was measured for each plant according to the proportion of bleached leaf area (the proportion of bleached leaf area=bleached leaf area/total leaf area×100%) 7 days after spraying (7 DAT): the case where there is basically no bleached phenotype is defined as grade 0, the case where the proportion of bleached leaf area is less than 50% is defined as grade 1,the case where the proportion of bleached leaf area is more than 50% is defined as grade 2, and the case where the proportion of bleached leaf area is 100% grade is defined as grade 3.
The soybean T1 plants into which the AsHPPDm-F372A-02 nucleotide sequence was introduced, soybean T1 plants into which the ZmHPPDm-F372A-02 nucleotide sequence was introduced, soybean T1 plants into which the PfHPPDm-F372A-02 nucleotide sequence was introduced, soybean T1 plants into which the AsHPPDm-F372A-A110 nucleotide sequence was introduced, soybean T1 plants into which, the PfHPPDm-F372A-G413W nucleotide sequence was introduced, soybean T1 plants into which the control vector DBN11375NN was introduced and wild-type soybean plants (V3-V4 at seedling stage) were sprayed with topramezone at two different concentrations respectively, i.e. 50 g ai/ha (2-fold field concentration, 2 ×) and 100 g ai/ha (4-fold field concentration, 4 ×) to detect the herbicide tolerance of soybean plants. According to the method in point 6 of Example 1, after 7 days of spraying (7 DAT), the damage degree of each plant by the herbicide was statistically analyzed, and the scoring and resistance evaluation were carried out accordingly. The soybean plants into which the AsHPPDm-F372A-02 nucleotide sequence was introduced were of two strains in total (S1 and S2), the soybean plants into which the ZmHPPDm-F372A-02 nucleotide sequence was introduced were of two strains in total (S3 and S4), the soybean plants into which the PfHPPDm-F372A-02 nucleotide sequence was introduced were of two strains in total (S5 and S6), the soybean plants into which the AsHPPDm-F372A-Al 10 nucleotide sequence was introduced were of two strains in total (S7 and S8), the soybean plants into which the PfHPPDm-F372A-G413W nucleotide sequence was introduced were of two strains in total (S9 and S10), the soybean plants into which the control vector DBN11375NN nucleotide sequence was introduced were of one strain in total (S11), and the wild-type soybean plants were of one strain in total (CK1); and 8 plants were selected from each strain and detected.

[1] = test system: Arabidopsis thaliana T1 plants; assay: Topramezone tolerance of transgenic Arabidopsis thaliana T1 plants (pesticide damage grade by bleached leaf area, score, resistance evaluation); assay type: in vivo; details: mutation combination, Table 8
Outline: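 Eighteen days after sowing, wild-type and HPPD-transgenic T1 Arabidopsis receive a topramezone spray at 1×, 2× or 4× field rate (25–100 g ai/ha) or water. Seven days later each plant is graded by its proportion of bleached leaf area.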

B1: PfHPPDm-F372A-G413W: Pseudomonas fluorescens HPPD with F372A and G336W (position 413 of SEQ ID NO: 1), SEQ ID NO: 416 (protein)
chain: MADLYENPMGLMGFEFIEFASPTPGTLEPIFEIMGFTKVATHRSKNVHLYRQGEINLILNNEPNSIASYFAAEHGPSVCGMAFRVKDSQKAYNRALELGAQPIHIDTGPMELNLPAIKGIGGAPLYLIDRFGEGSSIYDIDFVYLEGVERNPVGAGLKVIDHLTHNVYRGRMVYWANFYEKLFNFREARYFDIKGEYTGLTSKAMSAPDGMIRIPLNEESSKGAGQIEEFLMQFNGEGIQHVAFLTDDLVKTWDALKKIGMRFMTAPPDTYYEMLEGRLPDHGEPVDQLQARGILLDGSSVEGDKRLLLQIASETLMGPVFFEFIQRKGDDGFGEWNFKALFESIERDQVRRGVLTAD
modifications: PfHPPDm-F372A-G413W Amino Acid Sequence
- tolerance to topramezone, in words (soybean T1 plants): higher tolerance
- Grade 0 (number of plants) ([1]; topramezone 25 g ai/ha): 20
- Grade 1 (number of plants) ([1]; topramezone 25 g ai/ha): 0
- Grade 2 (number of plants) ([1]; topramezone 25 g ai/ha): 0
- Grade 3 (number of plants) ([1]; topramezone 25 g ai/ha): 0
- Resistance Grade ([1]; topramezone 25 g ai/ha): Highly resistant
- score ([1]; topramezone 25 g ai/ha): 0
- Grade 0 (number of plants) ([1]; topramezone 100 g ai/ha): 20
- Grade 1 (number of plants) ([1]; topramezone 100 g ai/ha): 0
- Grade 2 (number of plants) ([1]; topramezone 100 g ai/ha): 0
- Grade 3 (number of plants) ([1]; topramezone 100 g ai/ha): 0
- Resistance Grade ([1]; topramezone 100 g ai/ha): Highly resistant
- score ([1]; topramezone 100 g ai/ha): 0
